{"source": "patent US20120263732A1", "about": "“CD40 ANTIBODY FORMULATION AND METHODS” (PFIZER INC., priority 2003, published 2012)", "key": {"[1]": {"tested_on": "Fc receptors (FcR) on cynomolgus peripheral blood leukocytes", "assay": "125I-antibody binding to Fc receptors on cynomolgus leukocytes", "conditions": "125I-labelled antibody; 4° C., sodium azide; 21.4.1: excess unlabeled human IgG2 competitor, n=4", "method": "The binding of an anti-CD40 antibody (21.4.1) to Fc receptors on human and cynomolgus leukocytes was examined.\nThe binding of 21.4.1 to Fc receptors (FcR) on human or cynomolgus peripheral blood leukocytes was determined by using ^125I-21.4.1 and a human IgG1 control mAb. Human leukocytes from normal donors or cynomolgus leukocytes were isolated from whole blood using plasma gel and washed thoroughly to allow dissociation of receptor-bound serum immunoglobulins. Centrifugation through a sucrose cushion was used to separate cell-bound and free antibodies. Studies were performed at 4° C. in the presence of sodium azide to prevent receptor internalization.\n21.4.1 was tested for specific binding to FcR by using excess unlabeled human IgG2 isotype matched antibody as a competitor. ^125I-21.4.1 specific binding to FcR on human leukocytes (n=5 donors) was −1.0±8.5%, and specific binding to FcR on cynomolgus leukocytes (n=4) was 15±13%. […] The specific binding of the IgG1 control antibody to FcR on human and cynomolgus leukocytes accounted for 56% and 51% of the total bound radioactivity, respectively."}, "[2]": {"assay": "Primate anti-human antibody (PAHA) response", "assay_type": "in vivo, cynomolgus monkeys", "conditions": "all monkeys in the 3, 5, and 10 mg/kg dose groups; 14 to 28 days following administration", "method": "The observed dose-dependent clearance may be in part due to the binding of 21.4.1 to CD40 receptors that are widely expressed in normal tissues and the subsequent internalization and elimination of the antibody-receptor complex. Development of primate anti-human antibody (PAHA) response may also contribute to the accelerated clearance in some monkeys. PAHA was evaluated only after individual serum concentrations of 21.4.1 reached the lower limit of quantitation (LLOQ, 0.03 μg/mL) since the presence of 21.4.1 in test serum interferes with the assay for PAHA. Anti-21.4.1 antibodies were detected in all monkeys in the 3, 5, and 10 mg/kg dose groups at 14 to 28 days following administration of the antibody."}, "[3]": {"tested_on": "CD40(−) erythroleukemic tumor, K562", "assay": "CD40(−) K562 erythroleukemic tumor growth in SCID-beige mice", "assay_type": "in vivo, human tumor in SCID-beige mice", "method": "The effects of a CD40 antibody (21.4.1) on the growth of CD40(−) tumors (e.g., erythroleukemia and colon carcinoma) were examined. In particular, K562 tumors were chosen to assess the efficacy of 21.4.1 against a CD40(−) low immunogenic (class I and II negative) tumor.\nSCID-beige mice were injected SC with the CD40(−) erythroleukemic tumor, K562 (ATCC CCL-243) alone or in the presence of human peripheral blood T cells and DCs. Animals received a single IP injection of 21.4.1 either at the time of tumor injection or 5 days later using various dose levels."}, "[4]": {"tested_on": "human breast tumor, BT 474", "assay": "BT 474 breast tumor growth with human T cells and DC in SCID-beige mice", "assay_type": "in vivo", "text": "SCID-beige mice were challenged with the human breast tumor, BT 474 (ATCC HTB-20), SC, together with human peripheral blood T cells and DC. Animals received a single dose of 21.4.1 (IP) at the time of tumor injection."}, "[5]": {"tested_on": "CD40(+) Raji B cell lymphoma", "assay": "CD40(+) Raji B cell lymphoma growth in SCID-beige mice", "assay_type": "in vivo, human tumor in SCID-beige mice", "method": "SCID-beige mice were injected subcutaneously with the CD40(+) Raji B cell lymphoma (ATCC CCL-86) (SC) followed by a single dose of 21.4.1 (IP) at the time of tumor injection. Some animals were also injected with human T cells and DC. Tumor growth was assessed on Day 21."}, "[6]": {"assay": "Multiple-dose IV pharmacokinetics", "assay_type": "in vivo, cynomolgus monkeys", "method": "In a multiple-dose study, 21.4.1 was administered intravenously to cynomolgus monkeys (2/sex/dose) at doses of 0.3, 1.0, and 10 mg/kg on Days 1, 3, 5, 7, and 9 for 5 total doses. Blood was collected on Days 1 and 9 before dosing and 0.5, 6, and 24 hours after dosing and before dosing and 0.5 hour after dosing on Day 5 to measure serum drug concentrations. Systemic exposure to 21.4.1, as assessed by mean Cmax and mean AUG(0-24), increased with increasing dose from 0.3 to 10 mg/kg on both Day 1 and Day 9 (Table 2). Similar exposures (mean Cmax and mean AUC) were observed on Days 1 and 9 in the 0.3 and 1 mg/kg dose groups. […] Gender-related differences in exposure were not observed."}, "[7]": {"conditions": "cynomolgus monkey, in vivo", "quoted_text": "The pharmacokinetic properties of an anti-CD40 antibody (21.4.1) were examined in cynomolgus monkeys following intravenous (IV) administration of a single dose of 1, 3, 5 or 10 mg/kg."}, "[8]": {"conditions": "mouse, in vivo"}, "[9]": {"assay": "Serum pharmacokinetics after one injection in SCID-beige mice"}, "[10]": {"conditions": "0.3 mg/kg IV every other day, Day 1"}, "[11]": {"conditions": "0.3 mg/kg IV every other day, Day 9"}, "[12]": {"conditions": "1.0 mg/kg IV every other day, Day 1"}, "[13]": {"conditions": "1.0 mg/kg IV every other day, Day 9"}, "[14]": {"conditions": "10 mg/kg IV every other day, Day 1"}, "[15]": {"conditions": "10 mg/kg IV every other day, Day 9"}}, "note": "Read-outs that look alike come from different tables or passages of the source."}
{"substance": "21.4.1: human agonist anti-CD40 antibody; amino acid sequences SEQ ID NOs:5-8; hybridoma deposit PTA-3605", "values": [{"measurement": "specific binding to FcR on cynomolgus leukocytes", "setting": "[1]", "value": "15±13", "unit": "%"}, {"measurement": "anti-21.4.1 antibodies (PAHA)", "setting": "[2]", "value": "detected"}, {"measurement": "amount to cause a 50% inhibition of tumor growth (IC50)", "setting": "[3]; K562 with human T cells and DC, single IP injection, Day 21", "value": 0.005, "unit": "mg/kg"}, {"measurement": "growth of K562 tumor", "setting": "[3]; in the absence of immune cells", "value": "not inhibited"}, {"measurement": "amount necessary to cause a 50% reduction in tumor growth", "setting": "[4]; BT 474 with human T cells and DC, single IP dose at tumor injection, Day 53", "value": 0.005, "unit": "mg/kg"}, {"measurement": "growth of BT 474 cells", "setting": "[4]; in the presence of immune cells, single injection", "value": "prevented the growth"}, {"measurement": "anti-tumor activity against CD40(+) tumors when immune cells were present", "setting": "[5]; Raji", "value": "enhanced"}, {"measurement": "amount necessary to cause a 50% inhibition of tumor growth", "setting": "[5]; Raji co-injected with immune cells (human T cells and DC), single IP dose, Day 21", "value": 0.001, "unit": "mg/kg"}, {"measurement": "amount to cause a 50% inhibition of tumor growth (IC50)", "setting": "[5]; Raji in the absence of immune cells, single IP dose, Day 21", "value": 0.02, "unit": "mg/kg"}, {"measurement": "decrease of the 50% inhibitory amount when immune cells co-injected", "setting": "[5]; Raji, with vs without immune cells", "value": 20, "unit": "fold"}, {"measurement": "AUC(0-24)", "setting": "[6]; [10]", "value": "47.7 ± 15.4", "unit": "µg·h/mL"}, {"measurement": "Cmax", "setting": "[6]; [10]", "value": "4670 ± 1710", "unit": "ng/mL"}, {"measurement": "Tmax", "setting": "[6]; [10]", "value": "1.9 ± 2.8", "unit": "h"}, {"measurement": "AUC(0-24)", "setting": "[6]; [11]", "value": "55.6 ± 47.1", "unit": "µg·h/mL"}, {"measurement": "Cmax", "setting": "[6]; [11]", "value": "7400 ± 2900", "unit": "ng/mL"}, {"measurement": "Tmax", "setting": "[6]; [11]", "value": "0.5 ± 0.0", "unit": "h"}, {"measurement": "AUC(0-24)", "setting": "[6]; [12]", "value": "387 ± 59", "unit": "µg·h/mL"}, {"measurement": "Cmax", "setting": "[6]; [12]", "value": "26700 ± 5100", "unit": "ng/mL"}, {"measurement": "Tmax", "setting": "[6]; [12]", "value": "0.5 ± 0.0", "unit": "h"}, {"measurement": "AUC(0-24)", "setting": "[6]; [13]", "value": "219 ± 151", "unit": "µg·h/mL"}, {"measurement": "Cmax", "setting": "[6]; [13]", "value": "12300 ± 9100", "unit": "ng/mL"}, {"measurement": "Tmax", "setting": "[6]; [13]", "value": "1.9 ± 2.8", "unit": "h"}, {"measurement": "AUC(0-24)", "setting": "[6]; [14]", "value": "4130 ± 600", "unit": "µg·h/mL"}, {"measurement": "Cmax", "setting": "[6]; [14]", "value": "226000 ± 29000", "unit": "ng/mL"}, {"measurement": "Tmax", "setting": "[6]; [14]", "value": "1.9 ± 2.8", "unit": "h"}, {"measurement": "AUC(0-24)", "setting": "[6]; [15]", "value": "11400 ± 2100", "unit": "µg·h/mL"}, {"measurement": "Cmax", "setting": "[6]; [15]", "value": "577000 ± 163000", "unit": "ng/mL"}, {"measurement": "Tmax", "setting": "[6]; [15]", "value": "3.3 ± 3.2", "unit": "h"}, {"measurement": "increase of mean AUG(0-24) from Day 1 to Day 9", "setting": "[6]; 10 mg/kg dose group", "value": 2.8, "unit": "fold"}, {"measurement": "increase of mean Cmax from Day 1 to Day 9", "setting": "[6]; 10 mg/kg dose group", "value": 2.6, "unit": "fold"}, {"measurement": "duration of exposure of ≧0.1 μg/mL", "setting": "[7]", "value": 4, "unit": "days"}, {"measurement": "volume of distribution at steady state, mean of different doses", "setting": "[7]; iv", "value": 0.0575, "unit": "L/kg"}, {"measurement": "AUC(0-∞)", "setting": "[7]; iv, 1 mg/kg", "value": 298, "unit": "µg·h/mL"}, {"measurement": "CL", "setting": "[7]; iv, 1 mg/kg", "value": 3.81, "unit": "mL/h/kg"}, {"measurement": "Cmax", "setting": "[7]; iv, 1 mg/kg", "value": "~20000", "unit": "ng/mL"}, {"measurement": "Vdss", "setting": "[7]; iv, 1 mg/kg", "value": 0.0757, "unit": "L/kg"}, {"measurement": "t1/2", "setting": "[7]; iv, 1 mg/kg", "value": 18, "unit": "h"}, {"measurement": "AUC(0-∞)", "setting": "[7]; iv, 3 mg/kg", "value": 2460, "unit": "µg·h/mL"}, {"measurement": "CL", "setting": "[7]; iv, 3 mg/kg", "value": 1.28, "unit": "mL/h/kg"}, {"measurement": "Vdss", "setting": "[7]; iv, 3 mg/kg", "value": 0.0459, "unit": "L/kg"}, {"measurement": "t1/2", "setting": "[7]; iv, 3 mg/kg", "value": 33.6, "unit": "h"}, {"measurement": "AUC(0-∞)", "setting": "[7]; iv, 5 mg/kg", "value": 4790, "unit": "µg·h/mL"}, {"measurement": "CL", "setting": "[7]; iv, 5 mg/kg", "value": 1.04, "unit": "mL/h/kg"}, {"measurement": "Vdss", "setting": "[7]; iv, 5 mg/kg", "value": 0.0488, "unit": "L/kg"}, {"measurement": "t1/2", "setting": "[7]; iv, 5 mg/kg", "value": 33.6, "unit": "h"}, {"measurement": "AUC(0-∞)", "setting": "[7]; iv, 10 mg/kg", "value": 12500, "unit": "µg·h/mL"}, {"measurement": "CL", "setting": "[7]; iv, 10 mg/kg", "value": 0.798, "unit": "mL/h/kg"}, {"measurement": "Vdss", "setting": "[7]; iv, 10 mg/kg", "value": 0.0529, "unit": "L/kg"}, {"measurement": "apparent mean elimination half-life, range over doses", "setting": "[7]; iv, 10 mg/kg", "value": "18 to 48", "unit": "h"}, {"measurement": "systemic clearance, range over doses", "setting": "[7]; iv, 10 mg/kg", "value": "0.798 to 3.81", "unit": "mL/h/kg"}, {"measurement": "t1/2", "setting": "[7]; iv, 10 mg/kg", "value": 48, "unit": "h"}, {"measurement": "volume of distribution at steady state, range over doses", "setting": "[7]; iv, 10 mg/kg", "value": "0.0459 to 0.0757", "unit": "L/kg"}, {"measurement": "T1/2", "setting": "[8]", "value": "> 720", "unit": "h"}, {"measurement": "Cmax serum concentration", "setting": "[9]; corresponding to 0.001 mg/kg single IP", "value": 10, "unit": "ng/mL"}, {"measurement": "Cmax serum concentration", "setting": "[9]; corresponding to 0.005 mg/kg single IP", "value": 50, "unit": "ng/mL"}, {"measurement": "Cmax serum concentration", "setting": "[9]; corresponding to 0.02 mg/kg single IP", "value": 200, "unit": "ng/mL"}]}
